Data: the nanobody polyreactivity screen of Harvey et al. (2022)

Test: yeast display, Sf9 membrane polyspecificity reagent, FACS + sequencing; frameworks hold sequencing errors
Procedure, shortened: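 Synthetic nanobody libraries on Saccharomyces cerevisiae BJ5465 were galactose-induced for 36–48 hours, stained 1 hour at 4 °C with 10% biotinylated, detergent-solubilized Sf9 membrane reagent and enriched on streptavidin microbeads. FACS then separated cells into low and high (top ~1%) gates by anti-HA (expression) and streptavidin (reagent binding) fluorescence. Genes were colony-PCR amplified, MiSeq 2 × 250 sequenced and CDR-length filtered. A clone's polyreactivity label is that of its gate of origin.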

Row | Sequence | polyreactivity (PSR sort gate)
1 | QVQLVESGGGLVQAGGSLRLSCAASGNIFSDNAMGWYRQAPGKERELVAAITASTSDTYYADSVKGRFTISRDNAKNSVYLQMNSLKPEDTAVYYCAADSRGFQLFDYWGQGTQVTVSS | low polyreactivity
2 | QVQLVESGGGLVQAGGSLRLSCAASGNIFSFYAMGWNRPAPGKERELVAAINWSGGDTYYADSVKGRFTISRDNAKNTVYLQMNSLKPEDTAVYYCAAEYYYQYYPGGYDYWGQGTQVTVSS | high polyreactivity
3 | QVQLVESGGGLVQAGGSLRLSCAASGNIFSSNAMGWYRHAPGKEREVVAAITRSGGSTYYADSVKGRFTISRDNAKNTVYLQMNSLKPEDTAVYYCAAGKPRSKYWYDYWGQGTQVTVSS | high polyreactivity
4 | QVQLVESGGGLVQAGGSLRLSCAASGNIFSSNAMGWYRQAPGKERELVAAISASGGNTYYADSVKGRFTISRDNAKNTVYLQINSLKPEDTAVYYCNAYRGGYLRRGYYYWGQGSQVTVSS | high polyreactivity
5 | QVQLVESGGGLVQAGGSLRLSCAASGNIFSTYAMGWYRQAPGKERELVAAISKSGGRTYYADSVKGRFTISRDNAKNTVYLQMNSLKPEDTAVYYCNKRYQHGISFGYGYWGQGTQVTVSS | high polyreactivity
6 | QVQLVESGGGLVQAGGSLRLSCAASGNIFSWNTMGWYRQAPGKERELVAAITYRGTRTFYADSVKRRFTISRDNAKNTVYLQMNSLKPEDTEVYYCAATRYAPYRRYYYWGQGTQVTVSS | high polyreactivity
7 | QVQLVESGGGLVQAGGSLRLSCAASGNIFTFNAMGWYRQAPGKERELVAAIRSGGSTNYADSVKGRFTISRDNAKNTVYLQMNSLKPEDTAVYYCAAKRYVQGYVYRYGYWGQGTQVTVSS | high polyreactivity
8 | QVQLVESGGGLVQAGGSLRLSCAASGNIFTSYAMGWYRQAPGKERELVAAISSGGRTSYADSVKGRFTISRDNAKNTVYLEMNSLKPEDNAVYYCAAYYRRWQREYYYWGQGTKVTVSS | high polyreactivity
9 | QVQLVESGGGLVQAGGSLRLSCAASGNIFTYYVRGWYRQEPGKERELVAAISRRGGSTYYADSVKGRFTISRDFAKNTVYLQMNSLKPEDTAVYYCAKKYPRDMDYWGQGTQVTVSS | high polyreactivity
10 | QVQLVESGGGLVQAGGSLRLSCAASGNIFVFYVMGWYRPAPGKERELVASISSTGNTYYADSVKGRFTISRDNAKNTVYLQMNSLKPEDTAVYYCNADPIFVYSSYNYWGQGTQVTVSS | low polyreactivity
11 | QVQLVESGGGLVQAGGSLRLSCAASGNIFVNYAMGWYRQAPGKERELVASINYNGGNTYYADSVKGRFTISRDNAKNTVYLQMNSLKPEDTAVYYCAKDGGGLLRWYTDEYDYWGQGTQVNVSS | low polyreactivity
12 | QVQLVESGGGLVQAGGSLRLSCAASGNIFVSYDLGWYRQAPGKERELVAAISWRGGSTYYADSVKGRFTNSRDNAKNTVFLKMNSLKPEDTAVYYCSVDDWLDWLFADFGYWGQGTQVTVSS | low polyreactivity
13 | QVQLVESGGGLVQAGGSLRLSCAASGNIFVYNAMGWYRQAPGKERELVAAISWTGGSTYYADSVKGRFTISRDNAKNTVYLQMNSLKPEDTAVYYCAKSFGIWHARWLTYDYWGQGTQVTVSS | low polyreactivity
14 | QVQLVESGGGLVQAGGSLRLSCAASGNIFYINAMGWYRQAPGKERELVAAISSGGRTNYADSVKGRFTISRDNAKNTVYLQMNSLKPEDTAVYYCGAEGPEIKYYYWGQGTQVTVSL | low polyreactivity
15 | QVQLVESGGGLVQAGGSLRLSCAASGNIFYINTMGWYRQAPGKERELVAAIDASDGSTYYADSVKGRFTISRDNAKNSVYLQMYSLKPEDTAVYYCASRRGYDSVYYFYTLWYYYWGQGTQVTVSS | low polyreactivity
16 | QVQLVESGGGLVQAGGSLRLSCAASGNIFYQYAMGWYRQAPGKDREFVAAISISGTSTYADSVKGRFTISRDNAKNTVYLQMNSLKPEDTAVYWGQGTQVTVSS | low polyreactivity
17 | QVQLVESGGGLVQAGGSLRLSCAASGNIFYRYAMGWYRQAPGKERELVAAISGNSGNTYYADSVKGRFTISRDIAKNTVYLQMNSLKPEDTAVYYCAAERRAFGHYSWGQGTQVTVSS | high polyreactivity
18 | QVQLVESGGGLVQAGGSLRLSCAASGNIFYVYAMGWYRQAPGKERELVATITWRGGNTYYADSVKGRFTISRDNAKNTVDLQMNSLTPEDTAVYYCAAYVGYTRAYIGQFYAYDYWGQGTQVTVSS | low polyreactivity
19 | QVQLVESGGGLVQAGGSLRLSCAASGNILASNGMGLYRQAPGKERELVAAITYSGGSTYYADSVKGRFTISRDNAKNTVYLQMNSLKPEDTAVYDCAARYYYGRRYDYWGQGTQVTVSS | low polyreactivity
20 | QVQLVESGGGLVQAGGSLRLSCAASGNILAWYAMGWYRQAPGKERELVADISSRGGSTYYADSVKRRFTISRDNAKYTVYLQMKSLKPEDTAVYYCAAVWYWNQDYEYWGQGTQVTVSS | low polyreactivity
21 | QVQLVESGGGLVQAGGSLRLSCAASGNILHYYTMGLYRQAPGKETELVARINYSTGSTYYADSVKGRFTISRDNAKNTVYLQMNSLKPEDTAVYYCAAEKERDEEYDYWGQGTQVTVSS | low polyreactivity
22 | QVQLVESGGGLVQAGGSLRLSCAASGNILIGNVMGWYRQAPGKERELVAAITSGGDTYYADSVKGRFTISRDNAKNTVYLQMNSLKPEDTAVYYCNAYYYFWGQGTQVTVSS | low polyreactivity

Row | Sequence | polyreactivity (PSR sort gate)
23 | QVQLVESGGGLVQAGGSLRLSCAASGNILRYAMGWYRQAPGKERELVARISWRGGSTYYADSVKGRFTISRDNAKNTVYLQMNSLKPEDTAVYYCNKAYLGGGWQKTYDYWGQGTQVTVSS | high polyreactivity
24 | QVQLVESGGGLVQAGGSLRLSCAASGNILYANAMGWYRQAPGKERELVATINVSADSTYADSVKGRFTISRDNAKNTVYLQMNRLNPEDTAVYYCNAYGLYEKWGPWTVPYYYWGQVTQVTVSS | low polyreactivity
25 | QVQLVESGGGLVQAGGSLRLSCAASGNILYDNAMGSYRQAPGKERELVAAIDWSGGSTYYADSVKGRFTISRDNAKNTVYLQMNSLKPEDTAVYYCAAESYIGKYGSYDYWGLGTQVTVSS | low polyreactivity
26 | QVQLVESGGGLVQAGGSLRLSCAASGNILYFYDMGRYRQAPGKERELVAVITGGGGSTYYADSVKGRYTISRDNAKNTVYLQMNRLKPEDTAVYYWAALPWFPDEEYDYWGHGTQVTVSS | high polyreactivity
27 | QVQLVESGGGLVQAGGSLRLSCAASGNISWYNAMGWYRQAPGKERELVAAITSSGSGTYYADSVKGRFTISRDNAKHTVYLQMNSLKPEDTAVYYCIADNAIRYDYWGQGTQVTVSS | high polyreactivity
28 | QVQLVESGGGLVQAGGSLRLSCAASGNIVGSNAMGWYRQAPGKERELVAAISKSGGRTYYADSVKGRFTISRDNAKNTVYLQMNSLKPEDTAVYYCAAYDGYYEFDYWGQGTQVTVSS | low polyreactivity
29 | QVQLVESGGGLVQAGGSLRLSCAASGNIYRYYVMGWYRQAPGKEREFVAAITSSGGSTYYADSVKGRFTISRDNAKNTVYLQMNSLKPEDTAVFYCAKDYGDPGWAEYDYWGQGTQVTVSS | low polyreactivity
30 | QVQLVESGGGLVQAGGSLRLSCAASGNMFGYYAMGWYRQAPGKERELVARITSGGTTNYADSVKGRFTISRDNAKNTVYLQMNRLKPEDTAVYYCNKDWRRYWLRGDYWGQGTQVTVSS | low polyreactivity
31 | QVQLVESGGGLVQAGGSLRLSCAASGNNFGNNAMGWYRQAPGKERELVAAISSSGTSTYYADSVKGRFTISRDNAKNTVYLQMNSLKPEDTSVYYCNADPLPYDGYYDYDYWGQGTEVTVSS | low polyreactivity
32 | QVQLVESGGGLVQAGGSLRLSCAASGNSFYFYAMGWYRQAPGKERELVAAIDLTDGSTYYADSVKGRFTISRDNAKNTVYLQMNSLKPEDTAVYYCAADWVTFYSYTEYDYWGLGTQVTVSS | low polyreactivity
33 | QVQLVESGGGLVQAGGSLRLSCAASGNSFYSYAMGRYRQAPGKERELVAAITIDGSTTYADSVKGRFTISRDNAKNTVYLQMNSLKPEDTAVSYCNADGFTSDPYDSDDWGQGTLVTVSS | low polyreactivity
34 | QVQLVESGGGLVQAGGSLRLSCAASGNTFAYNTMGWYRQAPGKERELVAAIRTRGGSTYYADSVKGRFTISRDNAKNTVYLQMNSLKPEDTAVYYCAADYRYHGYWSYDYWGQGTQVTVSS | low polyreactivity
35 | QVQLVESGGGLVQAGGSLRLSCAASGNTFDGYDMGWYRQAPGKERELVAAITNTGASTYYADSVKGRFTISRDNAKNTVYLQMNSLKPEDTAVYYCNAQDSYPEDRHGMSYWGQGTQVTVSS | low polyreactivity
36 | QVQLVESGGGLVQAGGSLRLSCAASGNTFDGYDMGWYRQAPGKERELVAAITNTGASTYYADSVKGRFTISRDNAKNTVYLQMNSLKPEDTAVYYCTAQDSYPEDRHGMSYWGQGTQVTVSS | low polyreactivity
37 | QVQLVESGGGLVQAGGSLRLSCAASGNTFDRNAMGWYRQAPGKERELVAGISWRGGSTYYADSVKGRFTISRDNAKNTVYLQMNSLKPEDTAVYYCAAQRRYSTITGYGSWGQGTQVTVSS | high polyreactivity
38 | QVQLVESGGGLVQAGGSLRLSCAASGNTFDYYAMGWYRQAPGKERELVAAITRGGSTNYADSVKGRFTISRDNAKNTVSLQMNSLKPEDTAVYYCAAEQRAPRFADYDYWGQGTQVTVSS | low polyreactivity
39 | QVQLVESGGGLVQAGGSLRLSCAASGNTFFDYDMGWYRQAPGKERELVATITNSGTSTYYTDSVKGRFTISRDNAKNTVYLQMNSLKPEDTAVYYCAADLFYAVLGNEYDYWGQGTQVTVSS | high polyreactivity
40 | QVQLVESGGGLVQAGGSLRLSCAASGNTFFLYAMGWYRQAPGKERELVAVISASGGSTYFADSVKGRFTISRDNAKNTVYLQMNSVKPEDTAVYYCAKTPRTYYRYRNAFHYYYWGQGTQVTVSS | high polyreactivity
41 | QVQLVESGGGLVQAGGSLRLSCAASGNTFGDNAMGWYRQAPGKERELDAAISTGGNTYYADSVKGRFTISRDNAKNSVYLQMNSLKPEDTAVYYCNAKWIPDTLFGIHETEGDYWGQGTQVTVSS | low polyreactivity
42 | QVQLVESGGGLVQAGGSLRLSCAASGNTFGFYAMGWYRQAPGKERELVAGITSGDSTYYADSVKGRFTISRDNEKNTVYLQMNSLKPVDTAVYYCNADFTDSYWSRYDYWGQGTQVTVSS | low polyreactivity
43 | QVQLVESGGGLVQAGGSLRLSCAASGNTFGGYAMGWYRQAPGKERELVAAIRYSGTSTYYADSVKGRFTISRDNAKNTVYLQMNSLKPEDTAVYYCAATYTRVPNRFYYWGQGTQVTVSS | high polyreactivity
